The test has as its target T1, recombinant human GM-CSF (human, UniProt P04141 18-144).
T1 construct: also called rhGM-CSF
The test can be described thus: SPR, BIAcore 2000, 100 RU rhGM-CSF on chip, antibody 1-10 nM, Langmuir 1:1 model. A general note: Surface plasmon resonance follows binding to a sensor surface in real time, without labels.

T1 sequence (P04141 18-144 limits assumed): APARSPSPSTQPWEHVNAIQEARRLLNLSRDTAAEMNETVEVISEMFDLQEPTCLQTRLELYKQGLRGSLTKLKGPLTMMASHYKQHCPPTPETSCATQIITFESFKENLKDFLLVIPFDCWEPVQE

B1: chimeric 19/2 anti-human GM-CSF monoclonal antibody (antibody, V domains shown)
VH: EVQLQQSGPELVKPGASVKISCKASGYTFTDYNIHWVKQSHGKSLDWIGYIAPYSGGTGYNQEFKNRATLTVDKSSSTAYMELRSLTSDDSAVYYCARRDRFPYFDYWGQGTTLRVSS
VL: DIVMIQSQKFVSTSVGDRVNITCKASQNVGSNVAWLQQKPGQSPKTLIYSASYRSGRVPDRFTGSGSGTDFILTITTVQSEDLAEYFCQQFNRSPLTFGSGTKLELKR
Turning to B1, the kon was determined as 510000 M⁻¹ s⁻¹.

By kon is commonly meant the rate constant with which the complex forms.

Values taken from patent publication US20040053365A1 (LUDWIG INSTITUTE FOR CANCER RESEARCH, published 2004).
